Data as given in US20240293457A1 (Innovent, published 2024).

Target: T1, human CLDN18.2 on tumor cells (NUGC-4, KATO III-hCLDN18.2, DAN-G-hCLDN18.2) (human, UniProt P56856-2 1-261)
T1 construct: whole, on cells; also called Claudin18.2; DNA-G cells overexpressing Claudin18.2
Experiment: FACS binding to NUGC-4 gastric cancer cells (MFI vs Log [Conc(nM)])

B1: HB37A6 (antibody, human IgG1, kappa, V domains shown)
VH: EVQLLDSGGGLVQPGGSLRLSCAASGFTFSSYVMSWVRQAPGKGLNWVSTISHSGGSTYYADSVKGRFTISRDNSKNTLYLQMNSLRAEDTAVYYCAIDAPYYDILTGYRYWGQGTLVTVSS
VL: not shown
notes: Fully human; expressed in HEK293 cells as a full-length human IgG1 kappa monoclonal antibody
- EC50: 1.05 nM
